The text below walks through data of paper PMC5511170, “Deviation of the typical AAA substrate-threading pore prevents fatal protein degradation in yeast Cdc48” (Scientific Reports, 2017).

Numbering of substitutions follows the chain as printed. Names may count otherwise.

This assay concerns the target T1, GST-Ufd2 (yeast (Saccharomyces cerevisiae), UniProt P54860 1-961).
T1 construct: Ufd2, E4 ubiquitin ligase, yeast, cloned in pGEX6P-1; Cloned in pGEX6P-1; source: E. coli BL21, purified (glutathione-sepharose)
T1 sequence (looked up): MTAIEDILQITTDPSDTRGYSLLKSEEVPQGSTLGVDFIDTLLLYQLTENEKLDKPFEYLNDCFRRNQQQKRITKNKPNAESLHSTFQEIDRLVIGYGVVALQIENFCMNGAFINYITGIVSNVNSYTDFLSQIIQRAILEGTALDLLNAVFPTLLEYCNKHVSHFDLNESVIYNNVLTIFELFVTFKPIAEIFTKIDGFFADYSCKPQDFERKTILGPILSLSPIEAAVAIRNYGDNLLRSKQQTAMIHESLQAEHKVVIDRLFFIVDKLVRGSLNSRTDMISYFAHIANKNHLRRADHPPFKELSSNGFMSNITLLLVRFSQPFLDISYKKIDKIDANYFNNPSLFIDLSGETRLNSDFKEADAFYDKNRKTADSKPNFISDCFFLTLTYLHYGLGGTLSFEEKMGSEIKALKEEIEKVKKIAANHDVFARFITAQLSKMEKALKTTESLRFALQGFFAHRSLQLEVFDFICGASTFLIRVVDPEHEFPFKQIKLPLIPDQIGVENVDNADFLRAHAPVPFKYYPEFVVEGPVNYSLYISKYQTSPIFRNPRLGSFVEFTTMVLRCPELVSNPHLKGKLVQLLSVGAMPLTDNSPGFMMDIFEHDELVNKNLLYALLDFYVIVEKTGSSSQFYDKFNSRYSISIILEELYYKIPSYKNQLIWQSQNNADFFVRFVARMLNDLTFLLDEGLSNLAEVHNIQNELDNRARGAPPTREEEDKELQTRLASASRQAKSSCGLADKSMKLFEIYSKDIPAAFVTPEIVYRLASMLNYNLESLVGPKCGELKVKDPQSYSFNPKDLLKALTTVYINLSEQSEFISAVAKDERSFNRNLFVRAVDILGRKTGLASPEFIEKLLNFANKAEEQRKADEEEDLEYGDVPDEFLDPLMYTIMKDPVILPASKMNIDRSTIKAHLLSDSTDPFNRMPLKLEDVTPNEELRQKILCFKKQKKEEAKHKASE
Put plainly: pull-down; GST-Ufd2 (40 pmol) incubated with 20 pmol Cdc48 in 100 µL 20 mM Tris-HCl pH 7.4, 50 mM NaCl, 1 mM MgCl2, 5 mM β-mercaptoethanol, 20% glycerol, 10 min at 25 °C; then glutathione-sepharose 4B 30 min at room temperature; eluted with glutathione; immunoblot with anti-Cdc48 and anti-GST. To be noted: both partners purified. Background: In western blotting, separated proteins are transferred to a membrane and probed.

B1: wild-type Cdc48 (N-terminally His-tagged) (natural protein, Saccharomyces cerevisiae, UniProt P25694 1-835, looked up)
chain: MGEEHKPLLDASGVDPREEDKTATAILRRKKKDNMLLVDDAINDDNSVIAINSNTMDKLELFRGDTVLVKGKKRKDTVLIVLIDDELEDGACRINRVVRNNLRIRLGDLVTIHPCPDIKYATRISVLPIADTIEGITGNLFDVFLKPYFVEAYRPVRKGDHFVVRGGMRQVEFKVVDVEPEEYAVVAQDTIIHWEGEPINREDEENNMNEVGYDDIGGCRKQMAQIREMVELPLRHPQLFKAIGIKPPRGVLMYGPPGTGKTLMARAVANETGAFFFLINGPEVMSKMAGESESNLRKAFEEAEKNAPAIIFIDEIDSIAPKRDKTNGEVERRVVSQLLTLMDGMKARSNVVVIAATNRPNSIDPALRRFGRFDREVDIGIPDATGRLEVLRIHTKNMKLADDVDLEALAAETHGYVGADIASLCSEAAMQQIREKMDLIDLDEDEIDAEVLDSLGVTMDNFRFALGNSNPSALRETVVESVNVTWDDVGGLDEIKEELKETVEYPVLHPDQYTKFGLSPSKGVLFYGPPGTGKTLLAKAVATEVSANFISVKGPELLSMWYGESESNIRDIFDKARAAAPTVVFLDELDSIAKARGGSLGDAGGASDRVVNQLLTEMDGMNAKKNVFVIGATNRPDQIDPAILRPGRLDQLIYVPLPDENARLSILNAQLRKTPLEPGLELTAIAKATQGFSGADLLYIVQRAAKYAIKDSIEAHRQHEAEKEVKVEGEDVEMTDEGAKAEQEPEVDPVPYITKEHFAEAMKTAKRSVSDAELRRYEAYSQQMKASRGQFSNFNFNDAPLGTTATDNANSNNSAPSGAGAAFGSNAEEDDDLYS
notes: Cdc48, Saccharomyces cerevisiae, wild type, cloned in pET15b; Cloned in pET15b; also called WT; yeast Cdc48
Turning to B1, the binding result is recorded as “binds”.

B2: Cdc48 M288Y mutant (N-terminally His-tagged) (natural protein, Saccharomyces cerevisiae, UniProt P25694 1-835, looked up)
chain: B1 chain with M288Y
notes: Cdc48, Saccharomyces cerevisiae, with M288Y in the D1 pore loop, cloned in pET15b; Cloned in pET15b
Turning to B2, the binding result is “binds”.
